This is an account of results in article PMC6940849, “Structure-Based Redesign of a Self-Sufficient Flavin-Containing Monooxygenase towards Indigo Production” (International Journal of Molecular Sciences, 2019).

A word on the Km: it is the concentration of substrate that gives half-maximal velocity. By kcat is commonly meant the maximal rate divided by the concentration of active sites.

The labels stand for the following.
B1: *mFMO (PTDH-*mFMO; mFMO M15L/S23A) (Methylophaga thalassica; M15L/S23A/W319A) (protein)
chain: MATRIAILGAGPSGLAQLRAFQAAQEKGAEIPELVCFEKQADWGGQWNYTWRTGLDENGEPVHSSMYRYLWSNGPKECLEFADYTFDEHFGKPIASYPPREVLWDYIKGRVEKAGVRKYIRFNTAVRHVEFNEDSQTFTVTVQDHTTDTIYSEEFDYVVCCTGHFSTPYVPEFEGFEKFGGRILHAHDFRDALEFKDKTVLLVGSSYSAEDIGSQCYKYGAKKLISCYRTAPMGYKWPENWDERPNLVRVDTENAYFADGSSEKVDAIILCTGYIHHFPFLNDDLRLVTNNRLWPLNLYKGVVWEDNPKFFYIGMQDQAYSFNMFDAQAWYARDVIMGRLPLPSKEEMKADSMAWREKELTLVTAEEMYTYQGDYIQNLIDMTDYPSFDIPATNKTFLEWKHHKKENIMTFRDHSYRSLMTGTMAPKHHTPWIDALDDSLEAYLSDKSEIPVAKEA
notes: N-terminal fusion to phosphite dehydrogenase (PTDH, cofactor regeneration; pCRE3-mFMO), Ni-Sepharose purified from E. coli NEB10beta
B2: *mFMO (PTDH-*mFMO; mFMO M15L/S23A) (Methylophaga thalassica; M15L/S23A/W319A/Y207W) (protein)
chain: MATRIAILGAGPSGLAQLRAFQAAQEKGAEIPELVCFEKQADWGGQWNYTWRTGLDENGEPVHSSMYRYLWSNGPKECLEFADYTFDEHFGKPIASYPPREVLWDYIKGRVEKAGVRKYIRFNTAVRHVEFNEDSQTFTVTVQDHTTDTIYSEEFDYVVCCTGHFSTPYVPEFEGFEKFGGRILHAHDFRDALEFKDKTVLLVGSSWSAEDIGSQCYKYGAKKLISCYRTAPMGYKWPENWDERPNLVRVDTENAYFADGSSEKVDAIILCTGYIHHFPFLNDDLRLVTNNRLWPLNLYKGVVWEDNPKFFYIGMQDQAYSFNMFDAQAWYARDVIMGRLPLPSKEEMKADSMAWREKELTLVTAEEMYTYQGDYIQNLIDMTDYPSFDIPATNKTFLEWKHHKKENIMTFRDHSYRSLMTGTMAPKHHTPWIDALDDSLEAYLSDKSEIPVAKEA
notes: as for B1
B3: *mFMO (PTDH-*mFMO; mFMO M15L/S23A) (Methylophaga thalassica; C78I/M15L/S23A) (protein)
chain: MATRIAILGAGPSGLAQLRAFQAAQEKGAEIPELVCFEKQADWGGQWNYTWRTGLDENGEPVHSSMYRYLWSNGPKEILEFADYTFDEHFGKPIASYPPREVLWDYIKGRVEKAGVRKYIRFNTAVRHVEFNEDSQTFTVTVQDHTTDTIYSEEFDYVVCCTGHFSTPYVPEFEGFEKFGGRILHAHDFRDALEFKDKTVLLVGSSYSAEDIGSQCYKYGAKKLISCYRTAPMGYKWPENWDERPNLVRVDTENAYFADGSSEKVDAIILCTGYIHHFPFLNDDLRLVTNNRLWPLNLYKGVVWEDNPKFFYIGMQDQWYSFNMFDAQAWYARDVIMGRLPLPSKEEMKADSMAWREKELTLVTAEEMYTYQGDYIQNLIDMTDYPSFDIPATNKTFLEWKHHKKENIMTFRDHSYRSLMTGTMAPKHHTPWIDALDDSLEAYLSDKSEIPVAKEA
notes: as for B1
B4: *mFMO (PTDH-*mFMO; mFMO M15L/S23A) (Methylophaga thalassica; M15L/S23A/Y207W) (protein)
chain: MATRIAILGAGPSGLAQLRAFQAAQEKGAEIPELVCFEKQADWGGQWNYTWRTGLDENGEPVHSSMYRYLWSNGPKECLEFADYTFDEHFGKPIASYPPREVLWDYIKGRVEKAGVRKYIRFNTAVRHVEFNEDSQTFTVTVQDHTTDTIYSEEFDYVVCCTGHFSTPYVPEFEGFEKFGGRILHAHDFRDALEFKDKTVLLVGSSWSAEDIGSQCYKYGAKKLISCYRTAPMGYKWPENWDERPNLVRVDTENAYFADGSSEKVDAIILCTGYIHHFPFLNDDLRLVTNNRLWPLNLYKGVVWEDNPKFFYIGMQDQWYSFNMFDAQAWYARDVIMGRLPLPSKEEMKADSMAWREKELTLVTAEEMYTYQGDYIQNLIDMTDYPSFDIPATNKTFLEWKHHKKENIMTFRDHSYRSLMTGTMAPKHHTPWIDALDDSLEAYLSDKSEIPVAKEA
notes: as for B1
B5: *mFMO (PTDH-*mFMO; mFMO M15L/S23A) (Methylophaga thalassica; C78V/M15L/S23A) (protein)
chain: MATRIAILGAGPSGLAQLRAFQAAQEKGAEIPELVCFEKQADWGGQWNYTWRTGLDENGEPVHSSMYRYLWSNGPKEVLEFADYTFDEHFGKPIASYPPREVLWDYIKGRVEKAGVRKYIRFNTAVRHVEFNEDSQTFTVTVQDHTTDTIYSEEFDYVVCCTGHFSTPYVPEFEGFEKFGGRILHAHDFRDALEFKDKTVLLVGSSYSAEDIGSQCYKYGAKKLISCYRTAPMGYKWPENWDERPNLVRVDTENAYFADGSSEKVDAIILCTGYIHHFPFLNDDLRLVTNNRLWPLNLYKGVVWEDNPKFFYIGMQDQWYSFNMFDAQAWYARDVIMGRLPLPSKEEMKADSMAWREKELTLVTAEEMYTYQGDYIQNLIDMTDYPSFDIPATNKTFLEWKHHKKENIMTFRDHSYRSLMTGTMAPKHHTPWIDALDDSLEAYLSDKSEIPVAKEA
notes: as for B1
B6: *mFMO (PTDH-*mFMO; mFMO M15L/S23A) (Methylophaga thalassica; C78I/M15L/S23A/W319A/Y207W) (protein)
chain: MATRIAILGAGPSGLAQLRAFQAAQEKGAEIPELVCFEKQADWGGQWNYTWRTGLDENGEPVHSSMYRYLWSNGPKEILEFADYTFDEHFGKPIASYPPREVLWDYIKGRVEKAGVRKYIRFNTAVRHVEFNEDSQTFTVTVQDHTTDTIYSEEFDYVVCCTGHFSTPYVPEFEGFEKFGGRILHAHDFRDALEFKDKTVLLVGSSWSAEDIGSQCYKYGAKKLISCYRTAPMGYKWPENWDERPNLVRVDTENAYFADGSSEKVDAIILCTGYIHHFPFLNDDLRLVTNNRLWPLNLYKGVVWEDNPKFFYIGMQDQAYSFNMFDAQAWYARDVIMGRLPLPSKEEMKADSMAWREKELTLVTAEEMYTYQGDYIQNLIDMTDYPSFDIPATNKTFLEWKHHKKENIMTFRDHSYRSLMTGTMAPKHHTPWIDALDDSLEAYLSDKSEIPVAKEA
notes: as for B1
B7: *mFMO (PTDH-*mFMO; mFMO M15L/S23A) (Methylophaga thalassica; C78A/M15L/S23A) (protein)
chain: MATRIAILGAGPSGLAQLRAFQAAQEKGAEIPELVCFEKQADWGGQWNYTWRTGLDENGEPVHSSMYRYLWSNGPKEALEFADYTFDEHFGKPIASYPPREVLWDYIKGRVEKAGVRKYIRFNTAVRHVEFNEDSQTFTVTVQDHTTDTIYSEEFDYVVCCTGHFSTPYVPEFEGFEKFGGRILHAHDFRDALEFKDKTVLLVGSSYSAEDIGSQCYKYGAKKLISCYRTAPMGYKWPENWDERPNLVRVDTENAYFADGSSEKVDAIILCTGYIHHFPFLNDDLRLVTNNRLWPLNLYKGVVWEDNPKFFYIGMQDQWYSFNMFDAQAWYARDVIMGRLPLPSKEEMKADSMAWREKELTLVTAEEMYTYQGDYIQNLIDMTDYPSFDIPATNKTFLEWKHHKKENIMTFRDHSYRSLMTGTMAPKHHTPWIDALDDSLEAYLSDKSEIPVAKEA
notes: as for B1
B8: *mFMO (PTDH-*mFMO; mFMO M15L/S23A) (Methylophaga thalassica; M15L/S23A/W319F) (protein)
chain: MATRIAILGAGPSGLAQLRAFQAAQEKGAEIPELVCFEKQADWGGQWNYTWRTGLDENGEPVHSSMYRYLWSNGPKECLEFADYTFDEHFGKPIASYPPREVLWDYIKGRVEKAGVRKYIRFNTAVRHVEFNEDSQTFTVTVQDHTTDTIYSEEFDYVVCCTGHFSTPYVPEFEGFEKFGGRILHAHDFRDALEFKDKTVLLVGSSYSAEDIGSQCYKYGAKKLISCYRTAPMGYKWPENWDERPNLVRVDTENAYFADGSSEKVDAIILCTGYIHHFPFLNDDLRLVTNNRLWPLNLYKGVVWEDNPKFFYIGMQDQFYSFNMFDAQAWYARDVIMGRLPLPSKEEMKADSMAWREKELTLVTAEEMYTYQGDYIQNLIDMTDYPSFDIPATNKTFLEWKHHKKENIMTFRDHSYRSLMTGTMAPKHHTPWIDALDDSLEAYLSDKSEIPVAKEA
notes: as for B1
B9: *mFMO (PTDH-*mFMO; mFMO M15L/S23A) (Methylophaga thalassica; C78L/M15L/S23A) (protein)
chain: MATRIAILGAGPSGLAQLRAFQAAQEKGAEIPELVCFEKQADWGGQWNYTWRTGLDENGEPVHSSMYRYLWSNGPKELLEFADYTFDEHFGKPIASYPPREVLWDYIKGRVEKAGVRKYIRFNTAVRHVEFNEDSQTFTVTVQDHTTDTIYSEEFDYVVCCTGHFSTPYVPEFEGFEKFGGRILHAHDFRDALEFKDKTVLLVGSSYSAEDIGSQCYKYGAKKLISCYRTAPMGYKWPENWDERPNLVRVDTENAYFADGSSEKVDAIILCTGYIHHFPFLNDDLRLVTNNRLWPLNLYKGVVWEDNPKFFYIGMQDQWYSFNMFDAQAWYARDVIMGRLPLPSKEEMKADSMAWREKELTLVTAEEMYTYQGDYIQNLIDMTDYPSFDIPATNKTFLEWKHHKKENIMTFRDHSYRSLMTGTMAPKHHTPWIDALDDSLEAYLSDKSEIPVAKEA
notes: as for B1
B10: *mFMO (PTDH-*mFMO; mFMO M15L/S23A) (Methylophaga thalassica; M15L/S23A) (protein)
chain: MATRIAILGAGPSGLAQLRAFQAAQEKGAEIPELVCFEKQADWGGQWNYTWRTGLDENGEPVHSSMYRYLWSNGPKECLEFADYTFDEHFGKPIASYPPREVLWDYIKGRVEKAGVRKYIRFNTAVRHVEFNEDSQTFTVTVQDHTTDTIYSEEFDYVVCCTGHFSTPYVPEFEGFEKFGGRILHAHDFRDALEFKDKTVLLVGSSYSAEDIGSQCYKYGAKKLISCYRTAPMGYKWPENWDERPNLVRVDTENAYFADGSSEKVDAIILCTGYIHHFPFLNDDLRLVTNNRLWPLNLYKGVVWEDNPKFFYIGMQDQWYSFNMFDAQAWYARDVIMGRLPLPSKEEMKADSMAWREKELTLVTAEEMYTYQGDYIQNLIDMTDYPSFDIPATNKTFLEWKHHKKENIMTFRDHSYRSLMTGTMAPKHHTPWIDALDDSLEAYLSDKSEIPVAKEA
notes: as for B1

Substrate in one series: c1ccc2[nH]ccc2c1
In words: purified protein. In kind it is biochemical, Methylophaga thalassica. Particulars: NADPH; indole up to 1.6 mM.
As to B1, the Michaelis constant (Km) amounted to 900 µM and the kcat amounted to 0.42 s⁻¹.

B2: the Michaelis constant (Km) came out at 800 µM and the kcat is 0.8 s⁻¹.

As for B3, the Km was found to be 800 µM and the kcat was determined as 1.28 s⁻¹.

As for B4, the Michaelis constant (Km) worked out at 100 µM and the kcat came out at 0.31 s⁻¹.

Consider B5, for which the Michaelis-Menten constant (Km) was determined as 700 µM and the kcat was 1.04 s⁻¹.

For B6, the Michaelis constant (Km) was 800 µM and the kcat amounted to 0.93 s⁻¹.

On to B7, for which the Km was 400 µM and the turnover number (kcat) amounted to 0.79 s⁻¹.

For the protein B8, the Km is 400 µM and the kcat was determined as 0.64 s⁻¹.

For B9, the Km was 800 µM and the turnover number (kcat) worked out at 0.7 s⁻¹.

The same series, now with this note: NADPH; indole up to 1.6 mM; listed as printed as WT, table title says *mFMO.
As to B10, the Km came out at 400 µM and the kcat was 0.85 s⁻¹.
